From patent US11278600B2, “Human alpha-galactosidase variants” (Codexis, Inc., priority 2014, dated 2022)

Tests used:
Assay type in all cases: biochemical
[1] = HTP-analysis of yeast culture supernatants, no challenge (MUGal hydrolysis); settings: activity of the variant/activity of Rd3BB (SEQ ID NO: 13)
Summary of the method: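 GLA variants were expressed in INVSc1 yeast grown in SD-Ura broth with glucose at 30° C., and culture supernatants were collected after 66-84 h. Supernatant was mixed with McIlvaine buffer pH 4.8 and MUGal (2 mM stock) in 50 mM citrate, 200 mM KCl, pH 4.6, incubated at 37° C. for 30-180 minutes, then quenched with sodium carbonate.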

[2] = HTP-analysis of supernatants pretreated with acid (MUGal hydrolysis); settings: activity of the variant/activity of Rd3BB (SEQ ID NO: 13); challenge at pH 3.7
Summary of the method: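 Fluorescence of MUGal hydrolysis (Ex. 355 nm, Em. 448 nm) is read after sodium carbonate quench. The enzyme source is INVSc1 yeast culture supernatant, first exposed to pH 3.3-4.3 McIlvaine buffer at 37° C. for 1-3 h, then reacted at pH 4.8 for 30-180 minutes.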

[3] = HTP-analysis of supernatants pretreated with base (MUGal hydrolysis); settings: activity of the variant/activity of Rd3BB (SEQ ID NO: 13); challenge at pH 9.7
Summary of the method: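 GLA variants were secreted by transformed INVSc1 yeast grown 66-84 h at 30° C. Supernatants were exposed to neutral-to-basic buffers (pH 7.0-9.7) at 37° C for 1-18 h, then assayed with MUGal in acidic citrate/McIlvaine buffer, with fluorescence read after quenching.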

Molecule | Relative Activity of GLA Variants After No Challenge (NC) [1] | Relative Activity of GLA Variants After Challenge at pH 3.7 [2] | Relative Activity of GLA Variants After Challenge at pH 9.7 [3]
530 (protein, Synthetic Polypeptide sequence of Variant No. 530 of mature Human GLA) LDNGLARTPTMGWLHWERFMCNLDCQEEPDSCISEKLFMEMAERMVSEGWKDAGYEYLCIDDCWMAPQRDSEGRLQADPQRFPHGIRQLANHVHSKGLKLGIYADVGNKTCAGFPGSFGYYDIDAQTFADWGVDLLKFDGCYCDSLENLADGYKHMSLALNRTGRSIVYSCEWPLYMWPFQEPNYTEIRQYCNHWRNFADIDDSWASIKSILDWTSRNQERIVDVAGPGGWNDPDMLVIGNFGLSWDQQVTQMALWAIMAAPLFMSNDLRHISPQAKALLQDKDVIAINQDPLGKQGYQLRKGDNFEVWERPLSGDAWAVAIINRQEIGGPRSYTIPVASLGKGVACNPACFITQLLPVKRQLGFYNWTSRLKSHINPTGTVLLQLENTMQMSLKDLL | + (+ = 1.5 to 5 relative activity over Rd3BB (SEQ ID NO: 13)) | + (+ = 1.5 to 5 relative activity over Rd3BB (SEQ ID NO: 13)) | ++ (++ = >5 to 10 relative activity over Rd3BB (SEQ ID NO: 13))
534 (protein, Synthetic Polypeptide sequence of Variant No. 534 of mature Human GLA) LDNGLARTPTMGWLHWERFMCNLDCQEEPDSCISEKLFMEMAERMVSEGWKDAGYEYLCIDDCWMAPQRDSEGRLQADPQRFPHGIRQLANHVHSKGLKLGIYADVGNKTCAGFPGSFGYYDIDAQTFADWGVDLLKFDGCYCDSLENLADGYKHMSLALNRTGRSIVYSCEWPLYMWPFQRPNYTEIRQYCNHWRNFADIDDSWASIKSILDWTSRNQERIVDVAGPGGWNDPDMLVIGNFGLSWDQQVTQMALWAIMAAPLFMSNDLRHISPQAKALLQDKDVIAINQDPLGKQGYQLRKGDNFEVWERPLSGDAWAVAIINRQEIGGPRSYTIPVASLGKGVACNPACFITQLLPVKRQLGFYNWTSRLKSHINPTGTVLLQLENTMQMSLKDLL | + (+ = 1.5 to 5 relative activity over Rd3BB (SEQ ID NO: 13)) | + (+ = 1.5 to 5 relative activity over Rd3BB (SEQ ID NO: 13)) | ++ (++ = >5 to 10 relative activity over Rd3BB (SEQ ID NO: 13))
531 (protein, Synthetic Polypeptide sequence of Variant No. 531 of mature Human GLA) LDNGLARTPTMGWLHWERFMCNLDCQEEPDSCISEKLFMEMAERMVSEGWKDAGYEYLCIDDCWMAPQRDSEGRLQADPQRFPHGIRQLANHVHSKGLKLGIYADVGNKTCAGFPGSFGYYDIDAQTFADWGVDLLKFDGCYCDSLENLADGYKHMSLALNRTGRSIVYSCEWPLYMWPFQHPNYTEIRQYCNHWRNFADIDDSWASIKSILDWTSRNQERIVDVAGPGGWNDPDMLVIGNFGLSWDQQVTQMALWAIMAAPLFMSNDLRHISPQAKALLQDKDVIAINQDPLGKQGYQLRKGDNFEVWERPLSGDAWAVAIINRQEIGGPRSYTIPVASLGKGVACNPACFITQLLPVKRQLGFYNWTSRLKSHINPTGTVLLQLENTMQMSLKDLL | + (+ = 1.5 to 5 relative activity over Rd3BB (SEQ ID NO: 13)) | + (+ = 1.5 to 5 relative activity over Rd3BB (SEQ ID NO: 13)) | ++ (++ = >5 to 10 relative activity over Rd3BB (SEQ ID NO: 13))
537 (protein, Synthetic Polypeptide sequence of Variant No. 537 of mature Human GLA) LDNGLARTPTMGWLHWERFMCNLDCQEEPDSCISEKLFMEMAERMVSEGWKDAGYEYLCIDDCWMAPQRDSEGRLQADPQRFPHGIRQLANHVHSKGLKLGIYADVGNKTCAGFPGSFGYYDIDAQTFADWGVDLLKFDGCYCDSLENLADGYKHMSLALNRTGRSIVYSCEWPLYMWPFQYPNYTEIRQYCNHWRNFADIDDSWASIKSILDWTSRNQERIVDVAGPGGWNDPDMLVIGNFGLSWDQQVTQMALWAIMAAPLFMSNDLRHISPQAKALLQDKDVIAINQDPLGKQGYQLRKGDNFEVWERPLSGDAWAVAIINRQEIGGPRSYTIPVASLGKGVACNPACFITQLLPVKRQLGFYNWTSRLKSHINPTGTVLLQLENTMQMSLKDLL | + (+ = 1.5 to 5 relative activity over Rd3BB (SEQ ID NO: 13)) | + (+ = 1.5 to 5 relative activity over Rd3BB (SEQ ID NO: 13)) | ++ (++ = >5 to 10 relative activity over Rd3BB (SEQ ID NO: 13))
535 (protein, Synthetic Polypeptide sequence of Variant No. 535 of mature Human GLA) LDNGLARTPTMGWLHWERFMCNLDCQEEPDSCISEKLFMEMAERMVSEGWKDAGYEYLCIDDCWMAPQRDSEGRLQADPQRFPHGIRQLANHVHSKGLKLGIYADVGNKTCAGFPGSFGYYDIDAQTFADWGVDLLKFDGCYCDSLENLADGYKHMSLALNRTGRSIVYSCEWPLYMWPFQTPNYTEIRQYCNHWRNFADIDDSWASIKSILDWTSRNQERIVDVAGPGGWNDPDMLVIGNFGLSWDQQVTQMALWAIMAAPLFMSNDLRHISPQAKALLQDKDVIAINQDPLGKQGYQLRKGDNFEVWERPLSGDAWAVAIINRQEIGGPRSYTIPVASLGKGVACNPACFITQLLPVKRQLGFYNWTSRLKSHINPTGTVLLQLENTMQMSLKDLL | + (+ = 1.5 to 5 relative activity over Rd3BB (SEQ ID NO: 13)) | + (+ = 1.5 to 5 relative activity over Rd3BB (SEQ ID NO: 13)) | ++ (++ = >5 to 10 relative activity over Rd3BB (SEQ ID NO: 13))
532 (protein, Synthetic Polypeptide sequence of Variant No. 532 of mature Human GLA) LDNGLARTPTMGWLHWERFMCNLDCQEEPDSCISEKLFMEMAERMVSEGWKDAGYEYLCIDDCWMAPQRDSEGRLQADPQRFPHGIRQLANHVHSKGLKLGIYADVGNKTCAGFPGSFGYYDIDAQTFADWGVDLLKFDGCYCDSLENLADGYKHMSLALNRTGRSIVYSCEWPLYMWPFQMPNYTEIRQYCNHWRNFADIDDSWASIKSILDWTSRNQERIVDVAGPGGWNDPDMLVIGNFGLSWDQQVTQMALWAIMAAPLFMSNDLRHISPQAKALLQDKDVIAINQDPLGKQGYQLRKGDNFEVWERPLSGDAWAVAIINRQEIGGPRSYTIPVASLGKGVACNPACFITQLLPVKRQLGFYNWTSRLKSHINPTGTVLLQLENTMQMSLKDLL | + (+ = 1.5 to 5 relative activity over Rd3BB (SEQ ID NO: 13)) | + (+ = 1.5 to 5 relative activity over Rd3BB (SEQ ID NO: 13)) | ++ (++ = >5 to 10 relative activity over Rd3BB (SEQ ID NO: 13))
536 (protein, Synthetic Polypeptide sequence of Variant No. 536 of mature Human GLA) LDNGLARTPTMGWLHWERFMCNLDCQEEPDSCISEKLFMEMAERMVSEGWKDAGYEYLCIDDCWMAPQRDSEGRLQADPQRFPHGIRQLANHVHSKGLKLGIYADVGNKTCAGFPGSFGYYDIDAQTFADWGVDLLKFDGCYCDSLENLADGYKHMSLALNRTGRSIVYSCEWPLYMWPFQVPNYTEIRQYCNHWRNFADIDDSWASIKSILDWTSRNQERIVDVAGPGGWNDPDMLVIGNFGLSWDQQVTQMALWAIMAAPLFMSNDLRHISPQAKALLQDKDVIAINQDPLGKQGYQLRKGDNFEVWERPLSGDAWAVAIINRQEIGGPRSYTIPVASLGKGVACNPACFITQLLPVKRQLGFYNWTSRLKSHINPTGTVLLQLENTMQMSLKDLL | + (+ = 1.5 to 5 relative activity over Rd3BB (SEQ ID NO: 13)) | + (+ = 1.5 to 5 relative activity over Rd3BB (SEQ ID NO: 13)) | ++ (++ = >5 to 10 relative activity over Rd3BB (SEQ ID NO: 13))
533 (protein, Synthetic Polypeptide sequence of Variant No. 533 of mature Human GLA) LDNGLARTPTMGWLHWERFMCNLDCQEEPDSCISEKLFMEMAERMVSEGWKDAGYEYLCIDDCWMAPQRDSEGRLQADPQRFPHGIRQLANHVHSKGLKLGIYADVGNKTCAGFPGSFGYYDIDAQTFADWGVDLLKFDGCYCDSLENLADGYKHMSLALNRTGRSIVYSCEWPLYMWPFQQPNYTEIRQYCNHWRNFADIDDSWASIKSILDWTSRNQERIVDVAGPGGWNDPDMLVIGNFGLSWDQQVTQMALWAIMAAPLFMSNDLRHISPQAKALLQDKDVIAINQDPLGKQGYQLRKGDNFEVWERPLSGDAWAVAIINRQEIGGPRSYTIPVASLGKGVACNPACFITQLLPVKRQLGFYNWTSRLKSHINPTGTVLLQLENTMQMSLKDLL | + (+ = 1.5 to 5 relative activity over Rd3BB (SEQ ID NO: 13)) | + (+ = 1.5 to 5 relative activity over Rd3BB (SEQ ID NO: 13)) | ++ (++ = >5 to 10 relative activity over Rd3BB (SEQ ID NO: 13))
